Assay: soluble on expression in E. coli; label from the status in PepcDB or PDB records

| Sequence | soluble on expression in E. coli |
| --- | --- |
| SGIVPQLQNIVSTVNLGCKLDLKTIALRARNAEYNPKRFAAVIMRIREPRTTALIFSSGKMVCTGAKSEEQSRLAARKYARVVQKLGFPAKFLDFKIQNMVGSCDVKFPIRLEGLVLTHQQFSSYEPELFPGLIYRMIKPRIVLLIFVSGKVVLTGAKVRAEIYEAFENIYPILKGFRKTT | soluble |
| MSLSCWKPLSKEEFEAIVSKYKDNPKIEIDYENLKFIPKFNEQIKKYYSNKIKGAKVENLVNEVYEAWFDYIIRIYERPKEKDILMFLPCAAKKPYYKSKTHRTIQRAISGFQIFNRIHRVIVSNPGIIPWEFHTYWPFNSYDWPEWEETEDIKKLYYWVTYKRVKEFLRRHQYNYYTVYMKPDSLTYKAVMDASKELNIKIIPLLDEKTYEKCKGQGNPLVKEPCIESLKNNLKQLQKQIYEGSNSEGHHHHHH | soluble |
| MGSDKIHHHHHHMMNKREQDYWIFSVELRESKVSEENGKSIVITPLGLSAKRILIAGTVSSKQSDDRMARISLADPIGSFYVTAFSGGFNPEEKAMVDSLEVDDKAMVMGKINPYRTSEGVYLFSIRPELVSKTGEDALRLWTLKAYYFAKRRIYAIREAQKLQDPKADELISLGYSRVEAEAAISSIKNFPGYDYQRILEAIETAIYSVSTPTQLPEVRSKILNYIKENDTDGKGCKYEDIVIAAKNMGIDQSTTDEILNTLGSSGEIFEISLKRYKAVEPE | not soluble |
| MTSISSEYKLPEKTNTVSTNNSSLGKDEFLKILMTQVQNQDPLNPIDDKEFISQMATFSSLEQMMNLNTTMTQFVENQDPFTTYVDWMGKEVSWTDGKSATDKTGTVSSVKHFKGNYYLVLDDGTEISPANVMSVGQSSKLEHHHHHH | soluble |
| MGHHHHHHGGHMSLMASISSLGVGSGLDLSSILDSLTAAQKATLTPISNQQSSFTAKLSAYGTLKSALTTFQTANTALSKADLFSATSTTSSTTAFSATTAGNAIAGKYTISVTHLAQAQTLTTRTTRDDTKTAIATSDSKLTIQQGGDKDPITIDISAANSSLSGIRDAINNAKAGVSASIINVGNGEYRLSVTSNDTGLDNAMTLSVSGDDALQSFMGYDASASSNGMEVSVAAQNAQLTVNNVAIENSSNTISDALENITLNLNDVTTGNQTLTITQDTSKAQTAIKDWVNAYNSLIDTFSSLTKYTAVDAGADSQSSSNGALLGDSTLRTIQTQLKSMLSNTVSSSSYKTLAQIGITTDPSDGKLELDADKLTAALKKDASGVGALIVGDGKKTGITTTIGSNLTSWLSTTGIIKAATDGVSKTLNKLTKDYNAASDRIDAQVARYKEQFTQLDVLMTSLNSTSSYLTQQFENNSNSKEGGS | soluble |
| MVIRRCEKMEEETWKLKIGMCIQAKDFYSKRTDCSVHRPDVGGGLITEGNGYRVVVHDQCEEPNPFIIATTKQTHFGVTHSYIEFSNSNTGAPENIPDCSKHILISVYCDQEASGLDFHTLKYVESNYLHITVKYDTSCINHLGVNYSFMNECERKLTSIYETDTLTCGAKDIQTRDKYLKTCTNTKFDRSVYKTHMQKSKILHVKTELE | not soluble |
| MKEIWYVRHGETEWNAQRRFQGHLDIPLSPVGIGQAFRLAERLSRSRISFDRLYASDLRRARQTAEPLAQVLGLPIATTPLLREIHVGELAGLTRAEAEARFPSFLAEAAEDPWNARRPGGESMADLARRLQAFLEEVPPGRHLVVTHGGVIRAALKLALDLAGDTWRRFHIQNTSITRILYPENAVLTVADAAHLEVWADWLSDEDLKG | soluble |
| MEEHYYVSIDIGSSSVKTIVGEKFHNGINVIGTGQTYTSGIKNGLIDDFDIARQAIKDTIKKASIASGVDIKEVFLKLPIIGTEVYDESNEIDFYEDTEINGSHIEKVLEGIREKNDVQETEVINVFPIRFIVDKENEVSDPKELIARHSLKVEAGVIAIQKSILINMIKCVEACGVDVLDVYSDAYNYGSILTATEKELGACVIDIGEDVTQVAFYERGELVDADSIEMAGRDITDDIAQGLNTSYETAEKVKHQYGHAFYDSASDQDIFTVEQVDSDETVQYTQKDLSDFIEARVEEIFFEVFDVLQDLGLTKVNGGFIVTGGSANLLGVKELLSDMVSEKVRIHTPSQMGIRKPEFSSAISTISSSIAFDELLDYVTINYHDNEETEEDVIDVKDKDNESKLGGFDWFKRKTNKKDTHENEVESTDEEIYQSEDNHQEHKQNHEHVQDKDKDKEESKFKKLMKSLFE | not soluble |
| GSFTRFDLAIDDKKTYFSIPELLKKAQKGECISRFRKSDFNGSFDLSDGITGGTTIYFGSKKSEAYLCFYEKNYEQAEKYNIPLEELGDWNRYELRLKNERAQVAIDALLKTKDLTLIAMQIINNYVRFVDADENITREHWKTSLFWSDFIGDVGRLPLYVKPQKDFYQKSRNWLRNSCAPTMKMVLEADEHLGKTDLSDMIAEAELADKHKKMLDVYMADVADMVV | not soluble |

From the DeepSol protein solubility set
